Results published in patent publication US20140274782A1, “AFFINITY REAGENTS AND METHODS FOR DETECTION, PURIFICATION, AND PROTEOMIC ANALYSIS OF METHYLATED PROTEINS” (The Board of Trustees of the Leland Stanford Junior …, priority 2013, published 2014).

Experiments:
[1] = target: T1, mono- and di-methylated lysine peptides (H4K20, p53K382 and other histone and non-histone peptides) (Homo sapiens, UniProt Q9Y468); experiment: Peptide pull-down assay with biotinylated peptides, Western blot; format: binding
T1 construct: made in house; host or cells: E. coli
T1 sequence (Q9Y468 258-598): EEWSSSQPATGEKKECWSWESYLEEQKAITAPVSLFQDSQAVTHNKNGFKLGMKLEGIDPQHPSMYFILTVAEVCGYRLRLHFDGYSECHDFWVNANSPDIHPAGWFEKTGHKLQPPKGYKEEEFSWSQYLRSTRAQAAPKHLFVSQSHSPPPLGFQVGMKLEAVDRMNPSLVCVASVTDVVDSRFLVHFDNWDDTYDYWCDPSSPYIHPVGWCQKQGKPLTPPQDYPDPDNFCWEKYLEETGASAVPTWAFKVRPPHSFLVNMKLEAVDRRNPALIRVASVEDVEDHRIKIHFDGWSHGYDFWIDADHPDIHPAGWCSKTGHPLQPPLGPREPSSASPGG
Protocol: (§1) Peptide pull-down assays were performed as previously described (Shi et al. (2006) Nature 442, 96-99), using 1 μg protein and 1 μg peptide per condition in binding buffer (50 mM Tris pH 7.5, 150 mM NaCl, 0.05% NP-40). Peptide arrays were performed as previously described (Bua et al., supra).

[2] = tested on: mono- and di-methylated lysine peptides (H4K20, p53K382 and other histone and non-histone peptides); experiment: as above; format: binding; details: GST fusions, FIG. 1B
Protocol: as §1

[3] = target: T2, over 100 distinct histone and non-histone peptides with different post-translational modifications (Homo sapiens, UniProt Q9Y468); experiment: Peptide array probed with GST-3×MBT; format: binding; details: FIG. 1E
T2 construct: made in house; host or cells: E. coli
T2 sequence (Q9Y468 258-598): T1 sequence (Q9Y468 258-598)
Protocol: as §1

G9a SET domain = target: T3, G9a SET domain (Homo sapiens, UniProt Q96KQ7); experiment: ProtoArray on-chip in vitro methylation, detected with 3xFlag-3xMBT; format: biochemical; details: ProtoArrays bearing 9,500 recombinant human proteins
T3 construct: 50 μg of GST or recombinant GSTtagged G9a SET domain and the cofactor SAM
Protocol: The assay was conducted as previously described (Levy et al. (2011) Epigenetics Chromatin 4, 19). Briefly, a ProtoArray (Invitrogen, version 5.0) was incubated overnight with 50 μg of GST or recombinant GSTtagged G9a SET domain and the cofactor SAM.
Arrays were analyzed using GenePix Pro 6.1 software (Molecular Devices) and feature values were assigned to proteins using the array list provided by Invitrogen. We designated the following criteria for “hits”: GST array signal-to-noise ratio (SNR) less than or equal to 1.5, G9a array SNR greater than or equal to 10, and a difference between the G9a array SNR and the GST array SNR of greater than or equal to 12. Hits were individually visually validated. Proteins were removed from the list of potential substrates if irregular array features appeared to interfere with the array spots or SNR calculations.

[4] = tested on: methylated histones (HeLa nucleosomes, calf thymus histones), p53K382me1, H3K9me2; experiment: Far Western assay; format: binding
Protocol: For Far Western assays, proteins were separated by SDS-PAGE and transferred to a PVDF membrane. Following blocking, membranes were incubated overnight with the indicated domain. Domain binding was determined using an epitope tag-specific antibody and appropriate HRP-conjugated secondary antibody.
For Far Western assays on purified HeLa nucleosomes and calf thymus histones, the indicated amounts of nucleosome or histone were separated by SDS-PAGE and transferred to a PVDF membrane. The membrane was blocked in milk prepared with Tris-buffered saline with 0.1% Tween (TBST). Membranes were incubated overnight at 4° C. with 1 μg/ml of the indicated domain in TBST. Domain binding was determined using an epitope tag-specific antibody and appropriate HRP-conjugated secondary antibody.
For the SET8/p53 Far Westerns, p53 was methylated in vitro as previously described (Kuo et al., 2011), with 5 μg enzyme and 1 μg substrate per 25 μl of reaction volume incubated at 30° C. overnight. Following the methylation reaction, PreScission Protease was added directly to the reaction mix and samples were incubated overnight at 4° C. Blotting was conducted as described above. G9a SET domain/recombinant H3 (New England BioLabs) samples were prepared similarly, without a GST cleavage step.

[5] = tested on: methylated proteins (H3, p53, RelA, SIRT1) in HeLa / 293T nuclear extract; experiment: Protein pull-down from nuclear extract with GSH-Sepharose coupled domain, Western blot; format: binding
Protocol: GSH-Sepharose coupled domain beads were generated for pull-down by incubating GSHSepharose resin with E. coli lysate containing sufficient 3×MBT for bead saturation. Bead-coupled 3×MBT was incubated with nuclear extract overnight and proteins that precipitated with the resin were analyzed by SDS-PAGE.
Recombinant GST-SIRT1 was expressed by baculoviral transduction of the Sf9 insect cell line as previously described (Levy et al. (2011) Nat. Immunol. 12, 29-36). A panel of enzymes was tested for ability to methylate recombinant SIRT1 using ^3H-SAM in in vitro methylation reactions (Kuo et al. (2011) Mol. Cell 44, 609-620). SIRT1K622R was generated by site-directed mutagenesis (Stratagene). For the pull-down experiment, 293T cells were transfected with a 10:1 enzyme:substrate DNA ratio. 150 μg of nuclear proteins were used for pull-downs with 3×MBT or 3×MBTD355N coupled GSH-Sepharose as described above.
GSH-Sepharose coupled domain beads were prepared for pull-down by expressing the domain in E. coli. Cells were lysed as described, and lysate was incubated overnight at 4° C. with GSH-Sepharose with a sufficient lysate-to-Sepharose ratio to result in Sepharose binding saturation. The GSH-Sepharose was then washed 3×5 minutes in binding buffer and resuspended in binding buffer to 50% slurry. 150 μg of nuclear proteins were incubated overnight at 4° C. with 15 μl 50% slurry of either 3×MBT or 3×MBTD355N coupled to GSH-Sepharose in binding buffer (total volume of about 150 μl). Beads were washed 3×5 minutes in 0.5 ml of binding buffer. Beads were boiled in 25 μl of 2× Laemmli buffer and supernatant was analyzed by SDS-PAGE and Western blotting.
For SETD6/RelA and SET8/p53 pull-down experiments, 293T cells were transfected with a 1:1 enzyme:substrate DNA ratio. 150 μg of nuclear proteins were incubated overnight at 4° C. with 15 μl 50% slurry of either 3×MBT or 3×MBTD355N coupled to GSH-Sepharose in binding buffer. […] Laemmli buffer was added to the supernatant to 1×, and the resulting samples analyzed by SDS-PAGE and Western blotting.

T3 sequence (Q96KQ7 1038-1155 limits assumed): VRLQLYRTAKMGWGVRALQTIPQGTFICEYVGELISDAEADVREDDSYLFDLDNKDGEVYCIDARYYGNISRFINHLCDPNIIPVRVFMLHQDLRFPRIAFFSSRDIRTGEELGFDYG

B1: 3×MBT: three MBT repeats of L3MBTL1 (amino acids 190-530 of accession NP—056293.4), expressed as GST or Flag fusion; methyl-lysine affinity reagent (protein)
chain: T1 sequence (Q9Y468 258-598)
modifications: left off: a dimerising Fc or GST
binding to non-methylated peptides ([1]; FIG. 1D): does not bind
binding to tri-methylated peptides ([1]; FIG. 1D): binds very weakly
effect of acetylation of a neighboring lysine and phosphorylation of an N-terminally adjacent serine on binding ([1]; FIG. 2E): did not affect
effect of phosphorylation on a C-terminally adjacent serine on binding to mono- or di-methylated lysine ([1]; FIGS. 2A and 2B): decreased, but did not eliminate
effect of arginine methylation one or two residues removed from the lysine methylation site on binding ([1]; FIGS. 2C and 2D): little effect
co-precipitation with panel of mono- and di-methylated peptides ([1]; histone and nonhistone peptides, FIG. 1C): co-precipitates with thirteen different mono- and di-methylated peptides
binding to mono- and di-methylated H4K20- and p53K382-containing peptides [2]: binds
binding to unmodified peptides, tri-methylated lysine peptides or peptides with other PTMs on peptide array [3]: did not bind
number of peptides containing mono- and di-methylated lysine bound on peptide array ([3]; array of over 100 unique peptides): 41
number of proteins detected on the G9a-methylated array but not on the control array (G9a SET domain): 112
Far Western detection of recombinant H3 dimethylated at lysine 9 (H3K9me2) by G9a SET domain [4]: specifically detects
Far Western detection of recombinant p53 mono-methylated at lysine 382 by SET8 [4]: detected
Far Western detection of histones ([4]; purified HeLa nucleosomes and calf thymus histones): detected
precipitation of 3× Flag-SIRT1 ([5]; 293T cells, only when G9a is co-expressed and K622 is intact): specifically precipitated
precipitation of methylated proteins H3 and p53 ([5]; HeLa nuclear extract): precipitates
precipitation of methylated RelA ([5]; nuclear extract of 293T cells co-expressing SETD6 and RelA): precipitates
